For assay [1], the target named is T1, Human CLEC12A-His (recombinant, K244 WT) (human, UniProt Q5QGZ9 65-265).
T1 construct: Made in house (Dragonfly Tx); also called hCLEC12A; hCLEC12A-His; not shown: His tag
T1 sequence: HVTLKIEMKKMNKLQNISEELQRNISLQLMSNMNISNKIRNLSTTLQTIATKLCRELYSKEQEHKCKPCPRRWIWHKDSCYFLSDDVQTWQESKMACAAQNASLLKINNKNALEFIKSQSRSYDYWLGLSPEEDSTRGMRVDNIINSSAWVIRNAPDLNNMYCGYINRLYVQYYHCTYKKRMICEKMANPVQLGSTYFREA
Nature of the assay: SPR, two-state fit; control sample. In general terms: Surface plasmon resonance follows binding to a sensor surface in real time, without labels.

Assay [2] concerns the target T2, Human CD16a V158 (FcγRIIIa V158) (human, UniProt P08637 17-208, biotinylated).
T2 construct: Bought recombinant receptor; also called hCD16aV; hFcγRIIIa V158
Nature of the assay: SPR; after pH 5.0, 40C, 2 wks.

For assay [3], the target named is T3, Cynomolgus CD64 (FcγRI) (cynomolgus monkey, UniProt A0A2K5U901 33-309, Biotinylated and captured on the CAP chip (p-1094); the biotin site is not stated.).
T3 construct: Bought recombinant receptor; also called cFcγRI; Cynomolgus FcγRI; not shown: The vendor's biotinylation and purification tag (ACRO FCA-C82E8)
In words: SPR 25C, average.

For assay [4], the target named is T1, Human CLEC12A-His (recombinant, K244 WT). In words: SPR, two-state fit (kd1); control sample.
Assay [5] has as its target T4, Human CLEC12A expressed on cells (Ba/F3-hCLEC12A, PL21, HL60) (human, UniProt Q5QGZ9 1-265).
T4 sequence: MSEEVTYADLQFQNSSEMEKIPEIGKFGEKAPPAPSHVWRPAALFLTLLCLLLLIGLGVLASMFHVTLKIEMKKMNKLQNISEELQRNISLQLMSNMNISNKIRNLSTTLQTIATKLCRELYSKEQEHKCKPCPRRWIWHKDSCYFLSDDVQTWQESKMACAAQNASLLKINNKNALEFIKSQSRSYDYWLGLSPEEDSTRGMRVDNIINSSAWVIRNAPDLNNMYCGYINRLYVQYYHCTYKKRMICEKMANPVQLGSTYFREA
Nature of the assay: cell-based or functional assay.

Assay [6] has as its target T4, Human CLEC12A expressed on cells …. In words: cell-based or functional assay. The source holds these as a separate data set.
For assay [7], the target named is T1, Human CLEC12A-His (recombinant, K244 WT). In words: SPR, two-state fit; after 4 wks 40C in CST pH 7.0.
For assay [8], the target named is T5, human CLEC12A on cells (HL60, PL21, Ba/F3-hCLEC12A) (human, UniProt Q5QGZ9 1-265).
T5 construct: Endogenous on the AML lines HL60 and PL21; brought into mouse Ba/F3 cells by retroviral transduction; The cell line stands under assay; also called CLL-1
T5 sequence: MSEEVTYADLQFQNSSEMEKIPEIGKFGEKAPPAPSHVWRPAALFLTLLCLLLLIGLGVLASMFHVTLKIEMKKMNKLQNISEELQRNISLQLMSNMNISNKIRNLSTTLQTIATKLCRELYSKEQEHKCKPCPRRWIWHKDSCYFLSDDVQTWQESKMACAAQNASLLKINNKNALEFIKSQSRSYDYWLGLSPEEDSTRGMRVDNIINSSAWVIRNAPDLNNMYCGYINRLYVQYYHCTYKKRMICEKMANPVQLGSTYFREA
In words: flow cytometry, Ba/F3-hCLEC12A cells.

Assay [9] has as its target T6, mFc-hNKG2D (human, UniProt P26718 73-216).
T6 construct: extracellular domain; Recombinant mFc-tagged NKG2D dimer, made in house; also called human NKG2D; not shown: mouse Fc tag
T6 sequence (looked up): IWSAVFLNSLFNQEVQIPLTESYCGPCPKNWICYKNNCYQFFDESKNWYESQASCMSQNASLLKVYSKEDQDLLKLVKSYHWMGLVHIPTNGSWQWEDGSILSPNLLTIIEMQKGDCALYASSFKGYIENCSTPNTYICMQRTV
In words: SPR, 37 C, mFc-hNKG2D captured, kinetic fit.

For assay [10], the target named is T7, recombinant human FcRn (human, UniProt P55899 24-297; P61769 21-119).
T7 construct: also called hFcRn
Nature of the assay: SPR 25C, pH 6.0, steady state; pH 6.0; first replicate.

Assay [11] deals with HER2. Nature of the assay: SPR specificity test; unrelated recombinant antigen at up to 500 nM.
Assay [12] deals with T8, recombinant cynomolgus FcRn (cynomolgus monkey, UniProt Q8SPV9 24-297; Q8SPW0 21-119).
T8 construct: also called cFcRn; cyno FcRn
Nature of the assay: SPR 25C, pH 6.0, steady state; pH 6.0; third replicate.

“And” between values parts separate entries of the source, which are not always exact repeats. Equal values may be shown once.

These results are taken from patent US20220119534A1 (DRAGONFLY THERAPEUTICS, published 2022).

T3 sequence (A0A2K5U901 entry or part of it limits assumed): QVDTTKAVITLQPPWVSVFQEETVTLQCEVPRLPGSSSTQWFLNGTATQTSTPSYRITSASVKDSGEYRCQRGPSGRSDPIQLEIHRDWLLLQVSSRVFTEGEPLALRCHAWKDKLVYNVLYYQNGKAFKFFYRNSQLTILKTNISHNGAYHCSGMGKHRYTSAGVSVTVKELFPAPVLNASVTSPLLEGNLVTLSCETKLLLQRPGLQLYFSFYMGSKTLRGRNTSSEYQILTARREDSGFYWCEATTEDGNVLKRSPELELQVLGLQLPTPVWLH
T2 sequence (P08637 17-208 F176V limits assumed): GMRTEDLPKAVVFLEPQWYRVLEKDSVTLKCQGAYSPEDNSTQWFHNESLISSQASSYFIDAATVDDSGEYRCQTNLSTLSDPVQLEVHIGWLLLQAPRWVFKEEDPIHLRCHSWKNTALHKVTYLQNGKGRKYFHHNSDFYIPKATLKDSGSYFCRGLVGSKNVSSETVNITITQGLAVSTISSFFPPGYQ
T7 sequence (P55899 24-297 limits assumed, chain 1 of 2): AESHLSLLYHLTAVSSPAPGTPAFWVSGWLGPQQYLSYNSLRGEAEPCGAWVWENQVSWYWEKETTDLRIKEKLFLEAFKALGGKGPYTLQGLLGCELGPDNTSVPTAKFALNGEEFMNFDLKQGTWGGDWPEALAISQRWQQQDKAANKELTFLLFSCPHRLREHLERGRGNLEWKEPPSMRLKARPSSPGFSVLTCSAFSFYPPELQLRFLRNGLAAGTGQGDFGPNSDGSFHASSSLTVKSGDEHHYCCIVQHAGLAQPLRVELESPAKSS
T7 sequence (P61769 21-119 limits assumed, chain 2 of 2): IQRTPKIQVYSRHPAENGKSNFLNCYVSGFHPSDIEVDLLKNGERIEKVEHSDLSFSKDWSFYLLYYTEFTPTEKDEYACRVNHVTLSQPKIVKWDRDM
T8 sequence (Q8SPV9 24-297 limits assumed, chain 1 of 2): as the sequence (P55899 24-297 limits assumed, chain 1 of 2) above, with N39D, E44Q, G99S, S189G, S190N, L217M, S269T counted along it
T8 sequence (Q8SPW0 21-119 limits assumed, chain 2 of 2): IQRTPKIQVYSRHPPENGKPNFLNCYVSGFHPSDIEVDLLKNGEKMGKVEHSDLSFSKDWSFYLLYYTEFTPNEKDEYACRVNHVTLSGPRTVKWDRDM

B1: AB0089 TriNKET (bispecific antibody, human IgG1, kappa)
chain: QLQLQESGPGLVKPSETLSLTCTVSGFSLTNYGLHWIRQPPGKCLEWIGVIWVGGATDYNPSLKSRVTISVDTSKNQFSLKLSSVQAADTAVYYCAKGDYGDTLDYWGQGTLVTVSSGGGGSGGGGSGGGGSGGGGSDIQMTQSPSSLSASVGDRVTITCHASQNINFWLSWYQQKPGKAPKLLIYEASNLHTGVPSRFSGSGSGTDFTLTISSLQPEDFATYYCQQSHSYPLTFGCGTKLEIKGSDKTHTCPPCPAPELLGGPSVFLFPPKPKDTLMISRTPEVTCVVVDVSHEDPEVKFNWYVDGVEVHNAKTKPREEQYNSTYRVVSVLTVLHQDWLNGKEYKCKVSNKALPAPIEKTISKAKGQPREPRVYTLPPCRDELTKNQVSLTCLVKGFYPSDIAVEWESNGQPENNYKTTPPVLVSDGSFTLYSKLTVDKSRWQQGNVFSCSVMHEALHNHYTQKSLSLSPG
heavy: EVQLVESGGGLVKPGGSLRLSCAASGFTFSSYSMNWVRQAPGKGLEWVSSISSSSSYIYYADSVKGRFTISRDNAKNSLYLQMNSLRAEDTAVYYCARGAPIGAAAGWFDPWGQGTLVTVSSASTKGPSVFPLAPSSKSTSGGTAALGCLVKDYFPEPVTVSWNSGALTSGVHTFPAVLQSSGLYSLSSVVTVPSSSLGTQTYICNVNHKPSNTKVDKKVEPKSCDKTHTCPPCPAPELLGGPSVFLFPPKPKDTLMISRTPEVTCVVVDVSHEDPEVKFNWYVDGVEVHNAKTKPREEQYNSTYRVVSVLTVLHQDWLNGKEYKCKVSNKALPAPIEKTISKAKGQPREPQVCTLPPSRDELTENQVSLTCLVKGFYPSDIAVEWESNGQPENNYKTTPPVLDSDGSFFLYSWLTVDKSRWQQGNVFSCSVMHEALHNHYTQKSLSLSPG
light: DIQMTQSPSSVSASVGDRVTITCRASQGISSWLAWYQQKPGKAPKLLIYAASSLQSGVPSRFSGSGSGTDFTLTISSLQPEDFATYYCQQGVSFPRTFGGGTKVEIKRTVAAPSVFIFPPSDEQLKSGTASVVCLLNNFYPREAKVQWKVDNALQSGNSQESVTEQDSKDSTYSLSSTLTLSKADYEKHKVYACEVTHQGLSSPVTKSFNRGEC
notes: F3' format heterodimer of three chains; human IgG1 Fc with EW-RVT and Y349C/S354C mutations; also called AB0089 Lot AB0089-002; CLEC12A TriNKET AB0089
As a reminder, the Kd is the concentration at which binding is half-saturated. One may read the koff as a measure of how fast the partners let go of each other. The kon is a measure of how fast the partners come together. The low end stands for slower complex formation, the high end for faster complex formation. B1: the Kd in assay [1] worked out at 0.7 nM. In assay [2], this molecule registered a Kd of 383 nM, a koff of 0.0289 s⁻¹ and a kon of 75400 M⁻¹ s⁻¹. In assay [3], this molecule registered a Kd of 1.5 nM, a koff of 8.1e-05 s⁻¹ and a kon of 55000 M⁻¹ s⁻¹. Moreover, the koff in assay [4] worked out at 0.0476 s⁻¹. Further, in assay [5], the “EC50, KHYG-1-CD16aV cytotoxicity assay; after 4 wks 40C in HST pH 6.0” value was 0.17 nM and the “EC50, KHYG-1-CD16aV cytotoxicity assay; control sample” value amounted to 0.16 nM. Moreover, in assay [6], the “% Max, ADCP activity of M0 macrophages against PL21 cells” value amounted to 15% and the “EC50, ADCP activity of M0 macrophages against PL21 cells” value stood at 0.03 nM. The Kd in [7] was found to be 1 nM.

B2: AB0192 TriNKET (other)
chain: EVQLVESGGGVVQPGGSLRLSCAASGFTFNAFGMHWVRQAPGKCLEWVAFISSGSTSIYYANTVKGRFTISRDNSKNTLYLQMNSLRAEDTAVYYCARDGYPTGGAMDYWGQGTSVTVSSGGGGSGGGGSGGGGSGGGGSDIQMTQSPSSLSASVGDRVTITCKASQDIYNYLSWFQQKPGKAPKPLIYRANILVSGVPSRFSGSGSGQDYTFTISSLQPEDIATYYCLQFDAFPFTFGCGTKLEIKGSDKTHTCPPCPAPELLGGPSVFLFPPKPKDTLMISRTPEVTCVVVDVSHEDPEVKFNWYVDGVEVHNAKTKPREEQYNSTYRVVSVLTVLHQDWLNGKEYKCKVSNKALPAPIEKTISKAKGQPREPRVYTLPPCRDELTKNQVSLTCLVKGFYPSDIAVEWESNGQPENNYKTTPPVLVSDGSFTLYSKLTVDKSRWQQGNVFSCSVMHEALHNHYTQKSLSLSPG
heavy: EVQLVESGGGLVKPGGSLRLSCAASGFTFSSYSMNWVRQAPGKGLEWVSSISSSSSYIYYADSVKGRFTISRDNAKNSLYLQMNSLRAEDTAVYYCARGAPIGAAAGWFDPWGQGTLVTVSSASTKGPSVFPLAPSSKSTSGGTAALGCLVKDYFPEPVTVSWNSGALTSGVHTFPAVLQSSGLYSLSSVVTVPSSSLGTQTYICNVNHKPSNTKVDKKVEPKSCDKTHTCPPCPAPELLGGPSVFLFPPKPKDTLMISRTPEVTCVVVDVSHEDPEVKFNWYVDGVEVHNAKTKPREEQYNSTYRVVSVLTVLHQDWLNGKEYKCKVSNKALPAPIEKTISKAKGQPREPQVCTLPPSRDELTENQVSLTCLVKGFYPSDIAVEWESNGQPENNYKTTPPVLDSDGSFFLYSWLTVDKSRWQQGNVFSCSVMHEALHNHYTQKSLSLSPG
light: DIQMTQSPSSVSASVGDRVTITCRASQGISSWLAWYQQKPGKAPKLLIYAASSLQSGVPSRFSGSGSGTDFTLTISSLQPEDFATYYCQQGVSFPRTFGGGTKVEIKRTVAAPSVFIFPPSDEQLKSGTASVVCLLNNFYPREAKVQWKVDNALQSGNSQESVTEQDSKDSTYSLSSTLTLSKADYEKHKVYACEVTHQGLSSPVTKSFNRGEC
notes: the condition stands under assay; also called AB0192 Lot AB0192-005
One may read the EC50 as the concentration needed to bring the measured effect to its halfway point. Regarding B2, in assay [8], the EC50 was determined as 1.33 nM and the “FOB (fold over background)” value amounted to 325 fold. Moreover, the Kd in assay [9] was 770 nM and 778 nM and 790 nM.

B3: F3'-1602 TriNKET (other)
chain: QLQLQESGPGLVKPSETLSLTCTVSGFSLTNYGLHWIRQPPGKCLEWIGVIWSGGKTDYNPSLKSRVTISKDTSKNQFSLKLSSVQAADTAVYYCAKYDYDDSLDYWGQGTLVTVSSGGGGSGGGGSGGGGSGGGGSDIQMTQSPSSLSASVGDRVTITCHASQNINFWLSWYQQKPGKAPKLLIYEASNLHTGVPSRFSGSGSGTRFTLTISSLQPEDIATYYCQQSHSYPLTFGCGTKLEIKGSDKTHTCPPCPAPELLGGPSVFLFPPKPKDTLMISRTPEVTCVVVDVSHEDPEVKFNWYVDGVEVHNAKTKPREEQYNSTYRVVSVLTVLHQDWLNGKEYKCKVSNKALPAPIEKTISKAKGQPREPRVYTLPPCRDELTKNQVSLTCLVKGFYPSDIAVEWESNGQPENNYKTTPPVLVSDGSFTLYSKLTVDKSRWQQGNVFSCSVMHEALHNHYTQKSLSLSPG
heavy: EVQLVESGGGLVKPGGSLRLSCAASGFTFSSYSMNWVRQAPGKGLEWVSSISSSSSYIYYADSVKGRFTISRDNAKNSLYLQMNSLRAEDTAVYYCARGAPIGAAAGWFDPWGQGTLVTVSSASTKGPSVFPLAPSSKSTSGGTAALGCLVKDYFPEPVTVSWNSGALTSGVHTFPAVLQSSGLYSLSSVVTVPSSSLGTQTYICNVNHKPSNTKVDKKVEPKSCDKTHTCPPCPAPELLGGPSVFLFPPKPKDTLMISRTPEVTCVVVDVSHEDPEVKFNWYVDGVEVHNAKTKPREEQYNSTYRVVSVLTVLHQDWLNGKEYKCKVSNKALPAPIEKTISKAKGQPREPQVCTLPPSRDELTENQVSLTCLVKGFYPSDIAVEWESNGQPENNYKTTPPVLDSDGSFFLYSWLTVDKSRWQQGNVFSCSVMHEALHNHYTQKSLSLSPG
light: DIQMTQSPSSVSASVGDRVTITCRASQGISSWLAWYQQKPGKAPKLLIYAASSLQSGVPSRFSGSGSGTDFTLTISSLQPEDFATYYCQQGVSFPRTFGGGTKVEIKRTVAAPSVFIFPPSDEQLKSGTASVVCLLNNFYPREAKVQWKVDNALQSGNSQESVTEQDSKDSTYSLSSTLTLSKADYEKHKVYACEVTHQGLSSPVTKSFNRGEC
notes: CLEC12A scFv-Fc, NKG2D A49MI Fab-Fc, human IgG1 Fc; also called AB0237
On to B3, for which the Kd in [10] worked out at 1300 nM; in [12] it was 1400 nM. The “Response (RU)” value in assay [11] worked out at 0.1 RU.
